This is an account of results in the DeepSol protein solubility set.

A short description of this data set: soluble on expression in E. coli; label from the status in PepcDB or PDB records.
In the case of “MPFKMSSKAQTIKIFNLRSDTNEFIGAGDAYIPPHTGLPANCTDIAPPDIPSSHIAVFDAETQTWNLKEDHRGETVYDTTTGNQMYISEPGPLPENVTSVSPGGGYKKWDSKAKAWVNDEGAEVAARLREAEGTKSRLLQMASGKIAPLQDAVDLGIATDDEKAQLDEWKKYRVLVNRVDTSNPDWPEQPV”, the “soluble on expression in E. coli” value is reported as “not soluble”. Then “MAHHHHHHMVGIKYRKNFCDKMLRRTQQRAISQYKFGQPSLTRAFGPVPRERQVAQAGKFMSTKLPNGVRVVSHDLDGAHSVVGVYVEAGPKYDPLGCPGLSHVMRYAIQTSNMDSSLFQVDRTMRSTGNAYGHGEICKRYIHWKTEGRRDMWEKPFAMIATGVVAPRFHESDLERFRDTMDNQREELRWQNPREYCVDALETVAFFKEPLASPRMVPPESNDRCNQKVLLDHWAAYFQPGNITVAAVNIPHDALLAAYTSLPYPHSAEAPHHARSRPPTLSHASESAQFYPGRQYIVYEDRAKNMGTVPDMKEEVIAALGAPTFGRDEDVKKYATALVAREVYQASIESVMPAALTTSHGVQSFYRPYSSAGLIGITIRGAPKEIAGFLDAARGCFPIKVKDDEVAAGRARAAMAFTRNHLDMVRDYCDFIATLSVTPQQLMEAIGAVSAGEVDAALRTLSAVPPAVFVTGSTFTFPKVPSLKK”, with “not soluble”. To “MVWDVETAKRFLEVIRNETIYYPVLIALHTGMRAGEIVSLKWYDVNFEARIISVVKSVRNNRGLKTSDVKTKTSKRSVYINDVLFSELKNLYETIKPKPDDFVCPRLPTGNLTVGYLSKRFKLLVKRYNFPVIRFHDLRHTFATLMLSLGVNTKIVAEILGHSDIKLTADTYSHVLPTMQESAMKEFSKLWKLEHHHHHH” belongs “soluble”; to “MVTLCHVFGVHRSSYRYWKNRPEKPDGRRAVLRSQVLELHGISHGSAGARSIATMATRRGYQMGRWLAGRLMKELGLVSCQQPTHRYKRGGHEHVAIPNYLERQFAVTEPNQVWCGDVTYIWTGKRWAYLAVVLDLFARKPVGWAMSFSPDSRLTMKALEMAWETRGKPGGVMFHSDQGSHYTSRQFRQLLWRYQIRQSMSRRGNCWDNSPMERFFRSLKNEWMPVVGYVSFSKAAHAITDYIVGYYSALRPHEYNGGLPPNESENRYWKNSNSVASFC”, “not soluble”. To “MSTKADMAIAFHDKGYNCAQAVACSFCQEFGVAEEEMFRIAEGFGLGMGMMEVCGALSGMMMIIGLENSVGEPEKGRLTKGDTYRKVKEYVKKFQEQNGSYLCRELKGVETGKVLRSCPDCIRDAVALTEEYLAAQKQN” belongs “not soluble”. Take “MTKQIKVGVIGVGQMGQYHAEIYQKLPQVELVAICEFNDERRAEMAEKFQCKAYKDYHELLANTEIEAVIIVLPDNMHRDCVEEAVKHKKHILLEKPLAKELEDGKAMYELTKDYDKVFTVGFLLRFDPRFNMIKQRLDNGELGDIIHLYCRRNSPITGPKRYIGASDLSMHVMIHDIDYINWYMDSEPVKVIAKSRSVLLKEYGMNDVIYAIVTYENGAIACLEACWVLPENSPTIIDDKLELVGTKGVAYVDSCDHGVRFVSEKGVSYPDSRHWYYTNGEVSGDLAEEVMAFINNVANNTKSIITPKEAYDSLRVVDAIERSIAEGKEVSL”: the “soluble on expression in E. coli” value is “not soluble”. On to “SLIDNPHAQDYWPNRGQMDVQGLAVKYTEAGRAVLSDISFSVEGGLSMGLLGRTGSGKSTLLSALLRLASTDGEISIDGISWNSVPLEKWRKAFGVVPQKVFILTGTFRMNLDPHGRYSDEELWRVADQVGLKSVIEQFPDRLDFQLENGGSVLSHGHKQLMCLARSILSKARILLLDEPSAYLDTITLQVLRKTLKHAFSDCTVILSEAKVEPLLECDSFLVIEGSSVKSYDSIQKLLNEMSDLKQAVSAAD”, for which the “soluble on expression in E. coli” value is “not soluble”.

As to “MQNETINLKQHLAAIKEYWQPEIINRHGFQFHLVKLLGDYGWHTHGYSDKVLFAVEGDMAVDFADGGSMTIREGEMAVVPKSVSHRPRSENGCSLVLIELSDPSEAV”, the “soluble on expression in E. coli” value is listed as “soluble”. Then “MSLVKISNVRVRPLVLPLKQPYHWSYGIRESFAVNLIEIEADDGTVGIGECTVAPDQTGTAAILYRLAKHLVGHSPHDVAPLIARIFHQEYLGHGANIMRAANQIFSGIDMAMWDLQGKLAGLPVHQLLGGAHRKAVGYFYFLQGETAEELARDAAVGHAQGERVFYLKVGRGEKLDLEITAAVRGEIGDARLRLDANEGWSVHDAINMCRKLEKYDIEFIEQPTVSWSIPAMAHVREKVGIPIVADQAAFTLYDVYEICRQRAADMICIGPREIGGIQPMMKAAAVAEAAGLKICIHSSFTTGITTCAEHHIGLAIPNLDDGNQIMWQLVQEDIVSSPDLTPKNGWLDAFRKPGLGFQLAEDLVAEGEGRYAASREGHHHHHH”, with “soluble”; and “MSLGMAAWDRNSINPLQAYVYKTSKLPFYDENLHNLAEKIAPHCLLAHLRGVSYHDKQVVTDQNVHPFLYPVTSIALAHNGMLHNFETMRYDLLKYVKTEYRKYIKGTTDSEWIYAVFLSQLENPKGHFDASEIINAVIATLKILKTVRQQNNIVINSPVNLFLTNGDFIAATRFCLDYGWKPKDATQSTHFTYHSLWYTYGERYGFYENEYKMKGGTINSSIIIASEPLTENTTTWLEVPEYTLIFANQVDGEIKITSQDINEGHHHHHH”, with “not soluble”. To “MVKAISTEKDLLLKVDKSFPWETFRSKLKSLYSKKPKWNVISLLKVLLIKLIFDISWNNLEGEIRDSKMFMDFLGGKIPPKSTVFSFYKKLQQTVIQEGETMRTTLMDELNKALDKAISEYREKGFELEVGREKKTEKVSKGTYPPKIDTFLPVKPYPREKRSLSKTGSLEHHHHHH” belongs “soluble”; to “MGSDKIHHHHHHVIKLIRQFVLPHFGIDATEAKISALGNGHINETLLVRWPTGELVLQRINTQVFKTPQALVSNADKISHHLCAKALQQQYGLKVVSPCLTKEGELALDLGEQGFWRAISYLPHSHSIEVVKSEKEAEMAAKAFGHFASALSDFDATQLEDVIPQFHHLPGRMALLKQAVELDSQHRLAFCRHWVDYAVSQQALLDELAEISPKLPLRICHNDTKINNMLFDKRDMSSMAIIDLDTCMKGHLMYDFGDMVRTFCSPEAEDSTALENVKVRQSIFAAICRGYLSELGNVLTEVEKRSLWLGARVICLMIGVRFLTDYLNGDVYFHIHREGHNLDRAANQFTLYQSLLDQDVALKACFELNPLSAVEHS”, “not soluble”. With “NDAFRWKTQFNFSTNKNKIIKLHPDLKTFVYGDESFSSSYSMRLVEGGSFGDIYGKAFERDENGKVAFTTDKDGDKIPNVIGGGNTEKVGNCNPDFMLGWSNTFTYKGFSLYFLIDGRFGGDVLSQTQAELDQRGVSLNSGKARDAGYINIDGTQVKPRKFYTAVSGRDGCTEYYMYDATNIRLRELSLGYSLPQSWLAKAGGAFKDVQLSFVARNLFFISKKAPFDPDAVLSTGNDNQGIDVFGMPTTRSLGFNIKFTF”, the “soluble on expression in E. coli” value is listed as “not soluble”.

Turning to “MAHHHHHHMQQENRHLSSADLFKKFTLQNVAQIANISNKEQSQIRGELTEQYPLLADFWEDIMPKKPDIMLVRCHDQVHCVTLVSSQPEVLFFRHHNSPYIPHLKLLHKYPFILPRQQVDIGGCKYVVSGANVMCPGLTSEGGYITPGLAAGAIVAIHVEQKEHAIAVGRMLMSSEEIERVNNGPGIENIHHLGDGLWMNRVLSSSHIGAR”, the “soluble on expression in E. coli” value is listed as “not soluble”. Take “MSLVRMRVGKFDYLNNFLPYYFLNEKVEIVEANPREMASMLLSGRIDYAPVPAFFYLKNRERLRHYEFCVASEGKVLSVVVVSRKKELDDGSIAVTPHSLTSVNLLKILLAERGMKNMLVEVNTAKASEMLELCPHALVIGDEAIKARMIYKVVMDLGEEWYELTSLPAVFGISASLKETNAEEMDRKILMATEEGYRRFDEVVRAAEKAFKMPREFLEEYFRTLKFRLSSKERRGLDEFEKYCRDYGLLEEGHHHHHH”: the “soluble on expression in E. coli” value was “not soluble”. “WKITDEQRQYYVNQFKTIQPDLNGFIPGSAAKEFFTKSKLPILELSHIWELSDFDKDGALTLDEFCAAFHLVVARKNGYDLPEKLPESLMPK”: the “soluble on expression in E. coli” value was “soluble”. To “MPLPMNSGEKVKAVGRSYNPGRPLCLEDRKKIVRLYEEGCRVSHIARLIGVTHSCVSKIMSRYRRTGSVQPRSFRATENQENDNATWQQQQLKQQQKKEKPLPFSIERF” belongs “soluble”. To “MSTAFNNIRQGLSEAIAHAKGNVHGVRVHRPRQVDVKAVRAKVGMTQEQFAAQFGFSPATLRHWERGDRTPRGAALVLLNVIDRNPQAVIEALA” belongs “not soluble”.
